The values that follow come from patent publication US5837499A, “DNA encoding C5A receptor antagonists having substantially no agonist activity and methods of expressing same” (priority 1995, dated 1998).

For orientation: Ki means a measure of affinity in units of concentration, obtained from inhibition or displacement.

Where a SMILES comes first, the peptide text is derived from it.

Test [1] concerns the target T1, C5a receptor (Homo sapiens, UniProt P21730).
T1 construct: Neutrophils were purified from human peripheral blood; endogenous in cells; host or cells: neutrophils from human peripheral blood
T1 sequence (P21730 1-350): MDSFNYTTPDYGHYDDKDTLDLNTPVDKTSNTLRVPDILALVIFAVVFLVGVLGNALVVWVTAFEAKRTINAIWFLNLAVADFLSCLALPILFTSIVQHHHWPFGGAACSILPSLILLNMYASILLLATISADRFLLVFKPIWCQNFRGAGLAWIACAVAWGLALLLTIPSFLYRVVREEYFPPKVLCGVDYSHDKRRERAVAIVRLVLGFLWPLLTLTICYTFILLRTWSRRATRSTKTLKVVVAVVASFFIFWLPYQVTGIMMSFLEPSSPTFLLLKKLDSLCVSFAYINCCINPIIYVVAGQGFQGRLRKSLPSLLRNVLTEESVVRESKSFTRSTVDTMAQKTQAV
Briefly: C5a induced Ca++ rise in fura-2 loaded neutrophils (antagonist IC50 / agonist EC50). The format is cell-based. The settings on record: for Concentration up to which tested and agonist activity not detected (calcium rise): highest concentration tested, agonist activity was not detected. The text has this: The antagonism of the instant C5a analogues may be quantified as an IC50 in the calcium rise assay disclosed in Agents and Actions 21:375-378 (1987), described in detail in Example 7.
See Hugli et al., CRC Crit. Rev. Immunol. 1:321-326 (1981) and PCT WO 92/10205. A quantitative measure of this property may also be obtained using the calcium rise assay disclosed in Seligmann et al., supra, also described in Example 7. EC50 is a measure of agonistic activity. […] Applicants have not detected agonist activity of the instant C5a analogues up to a concentration of at Least about 8.0×10^-7 M, and preferably at least about 3.0×10^-6 M in the same calcium rise assay.
Recombinant human C5a was dissolved in Hanks buffer containing 0.01% Tween-20, and all stock dilutions of C5a were made in this buffer. The acetoxymethyl ester of fura-2 (fura 2AM, Molecular Probes) was dissolved in DMSO. Neutrophils were purified from human peripheral blood by sedimentation in 6% hetastarch (HESPAN, DuPont, Waukegan, Ill.), followed by counter flow elutriation as described in Chapman-Kirkland et al., J. Immunol. Meth. 142:95-104 (1991). Purified cells (2×10^6 /ml) were mixed with 0.2 uM fura- 2AM and incubated for 30 min at 37° C. in HEPES buffered Hanks solution without calcium or magnesium. Fifteen minutes before the assay, the cell suspension was transferred to a curvette containing a stir bar and calcium was added to 1 mM. The cell suspension was incubated with stirring at 37° C. Assays were terminated within 5 h of cell purification and a standard control response was obtained periodically to insure that the cell responses were not changing over the time of the experiment. The amount of fluorescence was determined using an SLM 8000 spectrofluorometer (SLM-Aminco Instruments, Urbana, Ill.). Curvettes were placed in the fluorometer and after obtaining a baseline for 10 sec, the C5a receptor antagonists to be tested for antagonistic properties were added and any change in fluoresence excitation ratio of 340 nm/380 nm (emission of 510 nm) was measured. Forty seconds after analogue addition, a challenge dose of C5a was added to a final concentration of 100 pM and the resulting change in excitation ratio was measured.
IC50 values were used as a measure of antagonist potency. These values are defined as the concentration of C5a analogue needed to reduce the calcium rise response of the 100 pM C5a challenge dose by 50%. EC50 values were used as a measure of agonist potency. […]

Test [2] addresses T1, C5a receptor. The test is described as follows: Receptor binding assay: displacement of [125I]Bolton-Hunter-labelled C5a from PMNL membranes. The settings on record: Table 4, [125I]BH-C5a 4.0 pM, 120 min at 4° C., Cheng-Prusoff. As to the method: C5a and C5a receptor antagonists were tested for their affinity for the C5a receptor. […] PMNLs were resuspended in Hanks balanced salt solution, without Ca^++ and Mg^++ and which contained 10 mM HEPES; at pH 7.3, 2.5 mM MgCl2, 100 units/ml DNAse I, 0.1 mM PMISF, 10 μg/ml aprotonin and 10 μg/ml leupeptin. They were then equilibrated at 400 psi for 20 min at 4° C. in a nitrogen cavitation bomb. After evacuation into 3 volumes 0.5 M KHCO3 containing 25 mM EDTA and the protease inhibitors listed above, the gelatinous material was removed with forceps and the mixture was centrifuged at 400×g for 10 min at 4° C. The resulting supernatant was centrifuged at 50,000×g for 60 min at 4° C. The pellets from the aliquots representing 200×10^6 cells were stored at -70° C. For binding studies, these membranes were resuspended at an equivalent of 20×10^6 cells/ml in 50 mM HEPES at pH 7.3, containing 1 mM CaCl2, 5 mM MgCl2, 0.1 mM PMSF, 0.1% bacitracin and 0.5% BSA.
Nonspecific binding was determined in the presence of 10 nM unlabelled C5a. The binding reaction was initiated by the addition of the PMNL membranes and was continued for 120 min at 4° C. Bound and free radioactivity were separated by vacuum filtration through GF/C glass fiber filters (Whatman), pretreated for 90 min with 0.05% PEI (polyethyleneimine) using a Cell Harvester (Brandel, Gaithersburg, Md.). Filters were washed with 3×5 ml of ice-cold 5 mM Tris buffer at pH 7.4 and counted in a multiwell Gamma counter (Genesys). Data were analyzed using the non-linear regression analysis program, RS/1 (Bolt, Beranek and Newman, Boston) and expressed as IC50 values. The results are set forth below in Table 4 as Ki values using the Cheng-Presoff equation. See Braunwalder et al., supra
For orientation: In a radioligand displacement assay an active substance lowers the binding of a labelled ligand.

Turning to `CC[C@H](C)[C@H](N)C(=O)N[C@@H](CO)C(=O)N[C@@H](Cc1ccccc1)C(=O)N[C@@H](CCCCN)C(=O)N[C@@H](CC(=O)O)C(=O)N[C@@H](CCSC)C(=O)N[C@@H](CCC(N)=O)C(=O)N[C@@H](CC(C)C)C(=O)NCC(=O)N[C@@H](CCCNC(=N)N)C(=O)O` [Decapeptide, reference compound] (H-ISFKDMQLGR-OH), the “Agonist / antagonist character” value on C5a receptor [1] (result in words) was “significant agonist activity”.

B1: C5a(1-70,T1M,C27S,M70C) (protein, UniProt P01031 678-747, looked up, fragment T1M C27S M70C)
chain: MLQKKIEEIAAKYKHSVVKKCCYDGASVNNDETCEQRAARISLGPRCIKAFTECCVVASQLRANISHKDC
modifications: C5a anaphylatoxin
As for B1, the Concentration up to which tested and agonist activity not detected (calcium rise) in the test with C5a receptor [1] is over 1000 nM.

B2: C5a(1-72,T1M,C27S,L72C) (protein, UniProt P01031 678-749, looked up, fragment T1M C27S L72C)
chain: MLQKKIEEIAAKYKHSVVKKCCYDGASVNNDETCEQRAARISLGPRCIKAFTECCVVASQLRANISHKDMQC
modifications: C5a anaphylatoxin
For B2, affinity with C5a receptor [2] was put at a Ki of 0.9 nM. The Concentration up to which tested and agonist activity not detected (calcium rise) with C5a receptor [1] was over 1500 nM.

B3: C5a(1-71,T1M,C27S) (protein, UniProt P01031 678-748, looked up, fragment T1M C27S)
chain: MLQKKIEEIAAKYKHSVVKKCCYDGASVNNDETCEQRAARISLGPRCIKAFTECCVVASQLRANISHKDMQ
modifications: C5a anaphylatoxin
notes: comparison agonist
On to B3, for which the Ki in the test with C5a receptor [2] turned out to be 3 nM.

B4: C5a(1-71,T1M,C27S,Q71S) (protein, UniProt P01031 678-748, looked up, fragment T1M C27S Q71S)
chain: MLQKKIEEIAAKYKHSVVKKCCYDGASVNNDETCEQRAARISLGPRCIKAFTECCVVASQLRANISHKDMS
modifications: C5a anaphylatoxin
notes: comparison agonist
For the molecule B4, in the test with C5a receptor [2], the affinity, expressed as Ki, was 7.5 nM.

B5: Analogue 22: dimeric form of analogue No. 8, disulfide linked through the C-terminal cysteines (protein, UniProt P01031 678-748, looked up, fragment T1M C27S Q71C)
chain: MLQKKIEEIAAKYKHSVVKKCCYDGASVNNDETCEQRAARISLGPRCIKAFTECCVVASQLRANISHKDMC
modifications: C5a anaphylatoxin disulfide-linked dimer
notes: dimeric form of analogue No. 8, disulfide linked through the C-terminal cysteines
The molecule B5 had a Ki with C5a receptor [2] of 0.04 nM.

B6: C5a(1-71,T1M,C27S,H67F,Q71C) (protein, UniProt P01031 678-748, looked up, fragment T1M C27S H67F Q71C)
chain: MLQKKIEEIAAKYKHSVVKKCCYDGASVNNDETCEQRAARISLGPRCIKAFTECCVVASQLRANISFKDMC
modifications: C5a anaphylatoxin
B6 returned a Ki in the test with C5a receptor [2] of 0.1 nM. In the test with C5a receptor [1], the “Concentration up to which tested and agonist activity not detected (calcium rise)” value is over 800 nM.

B7: C5a(1-71,T1M,C27S,Q71L) (protein, UniProt P01031 678-748, looked up, fragment T1M C27S Q71L)
chain: MLQKKIEEIAAKYKHSVVKKCCYDGASVNNDETCEQRAARISLGPRCIKAFTECCVVASQLRANISHKDML
modifications: C5a anaphylatoxin
notes: comparison agonist
Molecule B7 gave a Ki with C5a receptor [2] of 0.035 nM.

B8: C5a(1-71,T1M,C27S,Q71R) (protein, UniProt P01031 678-748, looked up, fragment T1M C27S Q71R)
chain: MLQKKIEEIAAKYKHSVVKKCCYDGASVNNDETCEQRAARISLGPRCIKAFTECCVVASQLRANISHKDMR
modifications: C5a anaphylatoxin
notes: comparison agonist
With B8, the affinity with C5a receptor [2] corresponds to a Ki of 0.35 nM.

B9: C5a(1-71,T1M,C27S,Q71H) (protein, UniProt P01031 678-748, looked up, fragment T1M C27S Q71H)
chain: MLQKKIEEIAAKYKHSVVKKCCYDGASVNNDETCEQRAARISLGPRCIKAFTECCVVASQLRANISHKDMH
modifications: C5a anaphylatoxin
notes: comparison agonist
B9: in the test with C5a receptor [2], the affinity, expressed as Ki, was 0.15 nM.

B10: C5a(1-71,T1M,C27S,Q71D) (protein, UniProt P01031 678-748, looked up, fragment T1M C27S Q71D)
chain: MLQKKIEEIAAKYKHSVVKKCCYDGASVNNDETCEQRAARISLGPRCIKAFTECCVVASQLRANISHKDMD
modifications: C5a anaphylatoxin
notes: comparison agonist
With B10, the affinity with C5a receptor [2] corresponds to a Ki of 8.5 nM.
